Patent US20210324080A1 (JIANGSU HUAIYU PHARMACEUTICAL, published 2021)
Where a chain is given by its changes, count along the chain named.

T1: CTLA-4-hFc (immunogen A; hFc-labeled CTLA-4 extracellular domain protein) (human, UniProt P16410 36-161)
T1 construct: range 36-161; Made in HEK293 cells, purified on protein A; also called CLTA-4-hFc; CTLA-4 protein; not shown: human IgG Fc fragment (hFc) of the pCpC vector
T1 sequence (looked up): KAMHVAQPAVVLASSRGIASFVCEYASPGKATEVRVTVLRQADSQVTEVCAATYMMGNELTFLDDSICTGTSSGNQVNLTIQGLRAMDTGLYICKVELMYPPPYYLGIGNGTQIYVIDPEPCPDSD

T2: human CTLA-4 (Y201V), full length, on transfected cells (human, UniProt P16410 36-223)
T2 construct: whole, on cells; also called hCTLA-4; HEK293-hCTLA-4 (Y201V)
T2 sequence (looked up): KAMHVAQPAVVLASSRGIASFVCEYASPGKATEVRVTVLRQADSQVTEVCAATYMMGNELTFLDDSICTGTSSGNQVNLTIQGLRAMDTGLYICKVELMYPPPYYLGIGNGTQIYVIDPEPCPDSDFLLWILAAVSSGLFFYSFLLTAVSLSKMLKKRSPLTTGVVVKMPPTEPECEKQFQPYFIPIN

T3: CTLA-4 on human T lymphocytes (PBMC, CD3+ T cells) (human, UniProt P16410 36-223)
T3 sequence (looked up): T2 sequence (looked up) with V166Y

B1: 97B8E1 (chimeric antibody purified from hybridoma supernatant) (antibody, V domains shown)
VH: QVQLVESGGGVVQPGRSLRLSCAASGFTFSSYVMHWVRQAPGKGLEWVAVIWSDGRNKYYTDSVKGRFTISRDNSKNTLYLQMSSLRAEDTAVYYCARSGIALAGNAFDIWGQGTMVTVSS
VL: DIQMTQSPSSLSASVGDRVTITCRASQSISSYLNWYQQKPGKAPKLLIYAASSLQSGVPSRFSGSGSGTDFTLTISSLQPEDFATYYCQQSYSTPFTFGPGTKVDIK
notes: also called mAb50; mAb050
B2: 97A8D1 (chimeric antibody purified from hybridoma supernatant) (antibody, V domains shown)
VH: QVQLVESGGGVVQPGRSLRLSCVASGFTFNNYGMNWVRQAPGKGLEWVAVIWYGGRNKFYADSVKGRFTISRDNSKNTLYLEMNSLRAEDTAVYYCARADWGGWFDPWGQGTLVTVSS
VL: EIVLTQSPGTLSLSPGERATLSCRASQSVSSTYLAWYQQKPGQAPRLLIHGAFSRATGIPDRFSGSGSGPDFTLTISRLEPEDFAVYYCQQYGTSPFTFGPGTKVDIK
notes: also called mAb49; mAb049
B3: 92C8B6 (chimeric antibody purified from hybridoma supernatant) (antibody, V domains shown)
VH: QVQLVESGGGVVQPGRSLRLSCAASGFTFSNFGMHWVRQAPGKGLEWVAVIWYDGSNKYYADSVKGRFTISRDNSKNTLFLQMNGLRAEDTAVYYCAKGGILMAGTLDYWGQGTLVTVSS
VL: DIQMTQSPSSLSASVGDRVTITCRASQSVSTYLNWYQQKPGKAPKLLIYAASSFQSGVPSRFSGSGSGTDFTLTISSLQPEDFATYFCQQSYSTPFTFGPGTKVDIK
notes: also called mAb42; mAb042
B4: 31C12F3 (chimeric antibody purified from hybridoma supernatant) (antibody, V domains shown)
VH: QVQLVESGGGVVQPGRSLILSCAASGFTFSSYGMHWVRQAPGKGLEWVAVVWYDGSNKYYADSVKGRFTISRDNSKNTLYLQMSSLRAEDTAVYYCARGGIVVPGLFEYWGQGSLVTVSS
VL: B3 VL with T20A, A25T, V29I, T31N, Y32L, K45E, A51P, S63R, F87Y
notes: also called mAb010

Target: T1, CTLA-4-hFc (immunogen A; hFc-labeled …)
Assay: ELISA, coated CTLA-4-hFc, competitor biotin-B7.2-hFc
Procedure: (§1) CTLA-4 extracellular domain protein (CTLA-4-hFc) was diluted with PBS to a final concentration of 1.0 μg/mL, and then added to a 96-well ELISA plate as 100 μl per well. The plate was covered with a plastic film and incubated overnight at 4° C. The plate was washed twice with plate washing solution [PBS containing 0.01% (v/v) Tween 20] on the next day, and added with blocking solution [PBS containing 0.01% (v/v) Tween 20 and 1% (w/w) BSA] and blocked at room temperature for 2 hours. […] After 2 hours, the plate was washed 3 times with a plate washing solution [PBS containing 0.01% (v/v) Tween 20]. HRP (horseradish peroxidase) labeled avidin diluent (purchased from Sigma) was added 100 microliters per well, and after the plate was incubated for 2 hours at 37° C., it was washed with plate washing solution [PBS containing 0.01% (v/v) Tween 20] for 3 times. […] TMB substrate was added to each well. After incubated at room temperature for 30 minutes, the plate was added with […] stop solution (1.0N HCl) to each well. An ELISA plate reader (SpectraMax 384plus, Molecular Device) was used to read the A450 nm value.

| Inhibition rate (%) at 0.00091 nM | Inhibition rate (%) at 0.091 nM | Inhibition rate (%) at 0.274 nM | Inhibition rate (%) at 0.823 nM | Inhibition rate (%) at 2.5 nM | Inhibition rate (%) at 7.4 nM | Inhibition rate (%) at 22.2 nM | Inhibition rate (%) at 66.7 nM | Binder |
| --- | --- | --- | --- | --- | --- | --- | --- | --- |
| 0% | -29% | 2% | 62% | 78% | 89% | 91% | 93% | B1 |
| 0% | -21% | 6% | 76% | 91% | 95% | 94% | 95% | B2 |
| 0% | 23% | 60% | 90% | 92% | 95% | 94% | 95% | B3 |
| 0% | -8.8% | 17.1% | 60.2% | 83.6% | 89.9% | 92.1% | 92.8% | B4 |

Target: T1, CTLA-4-hFc (immunogen A; hFc-labeled …)
Assay: competition ELISA: CTLA-4-hFc coated, antibody titrated, blocked ligand biotin-labeled B7.2-hFc, HRP-avidin, A450, inhibition (%)
Procedure: as §1

| IC50 (read off the curve) | Binder |
| --- | --- |
| ~0.6 nM | B1 |
| ~0.5 nM | B2 |
| ~0.2 nM | B3 |
| ~0.5 nM | B4 |

Target: T2, human CTLA-4 (Y201V), full length, on …
Assay: FACS, CHOK1-hCTLA-4 cells

| MFI at 0.07 nM | MFI at 0.67 nM | MFI at 6.67 nM | MFI at 66.67 nM | Binder |
| --- | --- | --- | --- | --- |
| 22 | 125 | 347 | 606 | B1 |
| 20 | 116 | 395 | 617 | B2 |
| 29 | 154 | 420 | 603 | B3 |
| 27.6 | 95 | 386 | 469 | B4 |

Target: T1, CTLA-4-hFc (immunogen A; hFc-labeled …)
Assay: competition ELISA: CTLA-4-hFc coated, antibody titrated, blocked ligand biotin-labeled B7.1-hFc, HRP-avidin, A450, inhibition (%)
Procedure: as §1

| IC50 (read off the curve) | Binder |
| --- | --- |
| ~0.5 nM | B1 |
| ~0.5 nM | B2 |
| ~0.2 nM | B3 |
| ~0.4 nM | B4 |

Target: T4, monkey CTLA-4, full length, on transfected HEK293 cells (monkey)
T4 construct: whole, on cells; also called cCTLA-4; HEK293-cCTLA-4
Assay: FACS, 293F-cCTLA-4 cells
Description: The pIRES plasmid with the monkey-derived CTLA-4 full-length gene was transfected into the HEK293 cell line to construct a HEK293 stable cell line containing monkey CTLA-4 (herein referred to as HEK293-cCTLA-4 stable cell line), wherein the database accession number of the monkey CTLA-4 nucleotide sequence is XM_005574014.1. The HEK293-hCTLA-4 stable cell line and HEK293-cCTLA-4 stable cell line were expanded in a T-75 cell culture flask to a 90% confluence. The medium was aspirated, and the cells were washed with HBSS buffer (Hanks Balanced Salt Solution, purchased from Invitrogen) twice, then treated with an enzyme-free cell dissociation fluid (Versene solution, purchased from Life technology) and the cells were collected. The cells were washed with HBSS buffer twice. After counted, the cells were diluted with HBSS buffer to 2×10⁶ cells per ml, added with 1% goat serum blocking solution, wherein the percentage was the mass percantage. Cells were incubated on ice for 30 minutes, then washed twice with HBSS buffer by centrifugation. The collected cells were suspended in the FACS buffer (HBSS containing 1% BSA, wherein the percentage was the mass percantage) to 2×10⁶ cells/ml, added as 100 microliters per well to a 96-well FACS reaction plate, added with 100 microliters per well of the purified CTLA-4 antibody sample to be tested, incubated on ice for 2 hours. The plate was washed twice with the FACS buffer by centrifugation, added with 100 microliters of fluorescent (Alexa 488)-labeled secondary antibodies (purchased from Invitrogen) per well, and incubated on ice for 1 hour. The plate was washed 3 times with FACS buffer by centrifugation, added with 100 μl fixative solution [4% (v/v) Paraformaldehyde] per well to suspend the cells. 10 minutes later, it was washed 2 times with FACS buffer by centrifugation. The cells were suspended with 100 microliters of FACS buffer, FACS (FACS Calibur, purchased from BD) was used for detection and the results were analyzed.

| MFI at 0.000128 nM | MFI at 0.0128 nM | MFI at 0.064 nM | MFI at 0.32 nM | MFI at 1.6 nM | MFI at 8 nM | MFI at 40 nM | MFI at 200 nM | Binder |
| --- | --- | --- | --- | --- | --- | --- | --- | --- |
| 2.3 | 35.7 | 96.8 | 270 | 504 | 757 | 810 | 784 | B1 |
| 2.4 | 23.1 | 67.2 | 225 | 513 | 754 | 910 | 831 | B2 |
| 2.3 | 22.2 | 67.7 | 208 | 465 | 722 | 800 | 711 | B3 |
| 2.4 | 34.3 | 97.7 | 261 | 455 | 654 | 712 | 668 | B4 |

Target: T3, CTLA-4 on human T lymphocytes (PBMC, …)
Assay: cell-based or functional assay

| IL-2 (pg/mL) at 0.016 ug/mL, SEB PBMC test | IL-2 (pg/mL) at 0.08 ug/mL, SEB PBMC test | IL-2 (pg/mL) at 2 ug/mL, SEB PBMC test | IL-2 (pg/mL) at 4 ug/mL (so in the source), SEB PBMC test | IL-2 (pg/mL) at 10 ug/mL, SEB PBMC test | Binder |
| --- | --- | --- | --- | --- | --- |
| 446 pg/mL | 824 pg/mL | 4450 pg/mL | 1950 pg/mL | 7910 pg/mL | B1 |
| 336 pg/mL | 742 pg/mL | 4950 pg/mL | 1520 pg/mL | 7980 pg/mL | B2 |
| 355 pg/mL | 830 pg/mL | 3740 pg/mL | 1420 pg/mL | 6120 pg/mL | B3 |

Target: T1, CTLA-4-hFc (immunogen A; hFc-labeled …)
Assay: ELISA, coated CTLA-4-hFc, competitor biotin-B7.1-hFc
Procedure: as §1

| Inhibition rate (%) at 0.00091 nM | Inhibition rate (%) at 0.091 nM | Inhibition rate (%) at 0.274 nM | Inhibition rate (%) at 0.823 nM | Inhibition rate (%) at 2.5 nM | Inhibition rate (%) at 7.4 nM | Inhibition rate (%) at 22.2 nM | Inhibition rate (%) at 66.7 nM | Binder |
| --- | --- | --- | --- | --- | --- | --- | --- | --- |
| 0% | -2% | 4% | 75% | 87% | 89% | 89% | 96% | B1 |
| 0% | -1% | 4% | 78% | 93% | 91% | 91% | 97% | B2 |
| 0% | 8% | 55% | 93% | 94% | 97% | 96% | 97% | B3 |
| 0% | 1.7% | 25.7% | 72.2% | 87.7% | 89.6% | 93.6% | 94.4% | B4 |
